From patent US20050153395A1, “Unique integrin binding site in connective tissue growth factor (CTGF)” (CHILDREN'S HOSPITAL INC., priority 2003, published 2005)
“Also recorded” adds a separate entry of the source.

Key:
[1] = molecular target: integrin αvβ3 (Homo sapiens, UniProt P05106+P06756); assay: Solid phase ELISA of integrin αvβ3 binding; conditions: coated at different concentrations
Experimental: Solid phase binding studies were also performed to investigate the binding of CTGF isoforms and αvβ3. Each CTGF isoform or vitronectin was individually coated onto microtiter wells at different concentrations, and the subsequent binding of αvβ3 was detected by ELISA using an anti-human αvβ3 monoclonal antibody. […] Saturation of binding occurred at 2 μg/ml for each CTGF isoform and 4 μg/ml for vitronectin.
In order to identify the αvβ3 binding site in CTGF4, eighteen synthetic peptides spanning the entire C-terminal region of CTGF4 (residues 246-349 of SEQ ID NO: 1) were synthesized and used as potential blocking agents in the solid phase binding studies as described in Example 3. […] Integrin αvβ3 was detected by successive incubation with anti-human αvβ3 monoclonal antibody diluted in blocking solution (1:1000), and followed by HRP-conjugated goat anti-mouse IgG (1:4000). The color reaction was developed using the horseradish peroxidase ELISA reagents (Chemicon), and the absorbance at 450 nm was measured using Bio Assay Reader (HTS700).
The ability of mutant CTGF4 to bind to integrin αvβ3 was assessed by solid phase ELISA which measured the ability of purified integrin αvβ3 to bind to the CTGF4 mutants.

[2] = tested on: PSCs; assay: PSC chemotaxis (migration) assay in culture insert; assay type: cell-based, rat; conditions: substance in lower chamber
Experimental: To examine whether CTGF plays a role in PSC migration, a chemotaxis assay was carried out in which the migratory behavior of PSCs in the upper chamber of a culture insert was assessed following addition of CTGF to the lower chamber. […] PSC migration was also promoted by FN, PDGF or TGF-β1.

[3] = tested on: vascular endothelial cells, intestinal epithelial, and hepatic stellate cells; assay: Adhesion of cell types to 10 kDa CTGF; assay type: cell-based; conditions: vascular endothelial, intestinal epithelial, hepatic stellate cells
Experimental: (§1) To confirm the functionality of residues 247-349 of SEQ ID NO: 1 (containing module 4 alone; denoted as CTGF4), this region of CTGF was produced as a maltose binding protein (MBP) fusion protein in E. coli as described in Ball et al., J Endocrinol; 176: R1-R7, 2003. […] HPLC-purified 10 kDa CTGF promoted 3T3 cell adhesion in a dose-dependent manner, with maximal binding at 8 ng/well. […] Also, the binding of all cell types to 10 kDa CTGF was reduced by EDTA treatment, though this effect was relatively modest in 3T3 cells. Thus, E coli-derived CTGF isoforms comprising essentially module 4 are intrinsically functional in the absence of the other constituent modules of CTGF.

[4] = tested on: neonatal mice; assay: Fibrogenic response after subcutaneous administration to neonatal mice; assay type: in vivo; conditions: administered subcutaneously to neonatal mice
Experimental: CTGF is also known to induce transdifferentiaion of corneal epithelial cells into α […] muscle actin (αSMA)-expressing myofibroblasts. For example, cells are cultured for 24 hours in the presence and absence of CTGF peptide or CTGF modulator. Subsequently, the treated cells are stained for αSMA. CTGF activity also may be analyzed by measuring for a classic fibrogenic response as described in Leask et al., Mol. Pathol; 54: 180-183, 2001. For example, CTGF peptide or CTGF modulator are administered into the subcutaneous region of the neck of 3 day old mice for 7 consecutive days. Fourteen days after the last injection, the mice are sacrificed and the injected areas are stained for αSMA.
(§2) Adhesion is a well-accepted and reproducible measure of CTGF activity. […] Using 4 liters of CHO conditioned medium approximately 0.5 mg, 1 mg, and 0.1 mg, respectively, of 38 kDa, 16-20 kDa, and 10 kDa CTGF (CTGF1-4, CTGF3-4 and CTGF4, respectively) were produced.

[5] = tested on: 3T3 cells; assay: 3T3 cell adhesion to CTGF-coated non-tissue culture plastic; assay type: cell-based; conditions: HPLC-purified E. coli-derived protein
Experimental: as §2, §1

[6] = tested on: pancreatic stellate cells (PSC); assay: PSC adhesion assay on coated wells; assay type: cell-based, rat; conditions: coated at 2 μg/ml
Description: Rat PSCs were isolated by a modification of the method described by Phillips et al., Gut; 52:677-82, 2003. Briefly, pancreatic tissue was digested in situ with 0.03% collagenase P (Roche, Indianapolis, Ind.) in HBSS by perfusion through the thoracic aorta. This protocol was approved by the Institutional Animal Care and Use Committee of Children's Research Institute, Columbus, Ohio. The tissue was pooled, minced with scissors, and then digested with 0.05% collagenase P, 0.02% protease XIV (Sigma, St. Louis), and DNase I (Roche, Indianapolis, Ind.) in HBSS. The resulting cell suspension was centrifuged in a 12% Optiprep gradient at 1400 g for 14 minutes. Stellate cells separated into a hazy band just above the interface of a the gradient and the aqueous buffer. This band was harvested, and the cells washed and resuspended in DMEM supplemented with 25 mM Hepes buffer, 10% FBS, and 100 U/ml penicillin in, 100 μg/ml streptomycin. The, cells were maintained at 37° C. in a humidified atmosphere of 5% CO2/95% air.
The ability of activated PSC to adhere to non-tissue culture plastic microtiter wells coated with recombinant CTGF1-4, CTGF3-4 or CTGF4 was investigated. The solid phase binding assay was carried out as described in Example 2. […] To assess the possibility that CTGF-mediated PSC adhesion involved cell surface integrins, the effect of divalent cations on cell adhesion was examined, as described in Example 2. […]
Because CTGF is a heparin-binding protein, this property was further investigated.
To identify the peptides that bind to PSCs, cell adhesion assays were carried out as described in Example 3.
To further investigate the peptide binding, P2 or P5 (10 μM) or vehicle buffer alone (no add) were added to PSC cell suspensions for 30 minutes at room temperature.

[7] = molecular target: integrin α5β1 (Homo sapiens, UniProt P05556+P08648); assay: Solid phase ELISA of integrin α5β1 binding; conditions: coated at 2 μg/ml; 1 μg/ml integrin
Experimental: In a second approach, a solid phase binding assay was used in which CTGF1-4 or FN were individually coated onto microtiter wells that were subsequently incubated with purified integrin α5β1. The presence of immobilized integrin α5β1 was detected by ELISA using an anti-integrin α5β1 antibody similar to the methods described in Example 3 above. In addition, CTGF1-4 bound to integrin α5β1 in a dose-dependent manner, with maximal binding at 2 μg/ml CTGF. This level of CTGF1-4 (2 μg/ml) binding was the same as that elicited by 2 μg/ml FN, a well known ligand of integrin α5β1. In a similar experiment, 2 μg/ml of CTGF1-4;CTGF3-4 or CTGF4 were individually precoated onto microtiter wells. Using the solid-phase assay, integrin α5β1 bound to CTGF1-4, CTGF3-4 or CTGF4 See FIG. 5 (Panel B).
To directly analyze whether α5β1 integrin binds to CTGF4, microtiter wells coated with CTGF4 (2 μg/ml) or FN (4 μg/ml) were used in an ELISA assay to detect integrin binding, as described in Example 3. For these assays, 1 μg/ml integrin α5β1, alone or in the presence of 35 μM of P2peptide (CTGF[257-272]) and 35 μM of P5 peptide (CTGF [285-291]), were added to the precoated plates. […] The binding between CTGF4 and integrin α5 β1 was blocked by peptide P5 (CTGF [285-291]) or peptide P2 (CTGF[257-272]). […]

Sequence of integrin α5β1 (P08648 42-894 limits assumed): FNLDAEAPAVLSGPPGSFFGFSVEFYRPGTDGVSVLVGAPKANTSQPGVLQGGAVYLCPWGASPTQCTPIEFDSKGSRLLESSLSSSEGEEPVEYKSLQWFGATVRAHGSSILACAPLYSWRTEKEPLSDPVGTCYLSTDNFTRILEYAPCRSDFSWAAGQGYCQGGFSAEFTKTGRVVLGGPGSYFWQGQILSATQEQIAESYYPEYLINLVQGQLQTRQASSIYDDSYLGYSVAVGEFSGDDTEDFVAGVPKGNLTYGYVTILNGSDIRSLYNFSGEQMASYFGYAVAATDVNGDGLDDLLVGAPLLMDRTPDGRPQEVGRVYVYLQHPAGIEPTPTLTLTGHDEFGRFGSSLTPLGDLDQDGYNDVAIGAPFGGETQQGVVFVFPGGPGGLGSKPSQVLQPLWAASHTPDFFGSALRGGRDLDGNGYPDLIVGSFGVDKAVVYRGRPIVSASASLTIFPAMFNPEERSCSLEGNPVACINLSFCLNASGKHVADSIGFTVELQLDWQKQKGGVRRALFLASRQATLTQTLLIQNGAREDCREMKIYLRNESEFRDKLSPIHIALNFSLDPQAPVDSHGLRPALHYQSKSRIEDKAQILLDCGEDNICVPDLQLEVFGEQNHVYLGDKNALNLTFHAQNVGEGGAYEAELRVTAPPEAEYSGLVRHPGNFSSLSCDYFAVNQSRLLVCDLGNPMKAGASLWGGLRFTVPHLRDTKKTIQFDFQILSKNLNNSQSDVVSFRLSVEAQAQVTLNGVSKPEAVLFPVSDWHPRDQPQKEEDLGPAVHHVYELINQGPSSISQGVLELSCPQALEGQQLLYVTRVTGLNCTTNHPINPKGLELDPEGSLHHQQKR
Sequence of integrin α5β1 (P08648 895-1049 partner limits assumed): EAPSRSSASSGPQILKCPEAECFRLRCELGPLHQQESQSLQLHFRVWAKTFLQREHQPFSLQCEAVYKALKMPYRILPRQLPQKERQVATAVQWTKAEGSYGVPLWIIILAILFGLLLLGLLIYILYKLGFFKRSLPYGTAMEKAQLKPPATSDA
Sequence of integrin α5β1 (P05556 21-798): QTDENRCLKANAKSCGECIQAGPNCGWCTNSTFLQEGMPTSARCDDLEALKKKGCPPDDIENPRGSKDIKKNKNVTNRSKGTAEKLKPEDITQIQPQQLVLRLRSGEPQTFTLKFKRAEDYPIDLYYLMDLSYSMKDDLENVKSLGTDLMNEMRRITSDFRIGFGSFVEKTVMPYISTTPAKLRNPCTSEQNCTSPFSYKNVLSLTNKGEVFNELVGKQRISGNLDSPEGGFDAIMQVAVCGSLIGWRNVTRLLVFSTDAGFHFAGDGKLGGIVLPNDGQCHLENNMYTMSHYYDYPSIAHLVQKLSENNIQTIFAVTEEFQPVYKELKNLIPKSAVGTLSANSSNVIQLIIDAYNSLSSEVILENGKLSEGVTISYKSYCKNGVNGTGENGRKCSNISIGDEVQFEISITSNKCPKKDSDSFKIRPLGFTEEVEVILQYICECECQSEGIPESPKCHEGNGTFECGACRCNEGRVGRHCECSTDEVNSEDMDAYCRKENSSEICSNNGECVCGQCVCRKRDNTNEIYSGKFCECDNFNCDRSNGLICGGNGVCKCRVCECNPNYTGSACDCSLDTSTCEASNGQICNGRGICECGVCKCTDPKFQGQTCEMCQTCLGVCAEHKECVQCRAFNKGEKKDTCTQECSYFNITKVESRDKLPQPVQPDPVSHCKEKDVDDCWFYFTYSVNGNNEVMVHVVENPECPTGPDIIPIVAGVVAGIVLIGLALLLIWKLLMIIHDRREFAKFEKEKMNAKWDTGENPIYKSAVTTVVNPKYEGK
Sequence of integrin αvβ3 (P06756 31-889 limits assumed): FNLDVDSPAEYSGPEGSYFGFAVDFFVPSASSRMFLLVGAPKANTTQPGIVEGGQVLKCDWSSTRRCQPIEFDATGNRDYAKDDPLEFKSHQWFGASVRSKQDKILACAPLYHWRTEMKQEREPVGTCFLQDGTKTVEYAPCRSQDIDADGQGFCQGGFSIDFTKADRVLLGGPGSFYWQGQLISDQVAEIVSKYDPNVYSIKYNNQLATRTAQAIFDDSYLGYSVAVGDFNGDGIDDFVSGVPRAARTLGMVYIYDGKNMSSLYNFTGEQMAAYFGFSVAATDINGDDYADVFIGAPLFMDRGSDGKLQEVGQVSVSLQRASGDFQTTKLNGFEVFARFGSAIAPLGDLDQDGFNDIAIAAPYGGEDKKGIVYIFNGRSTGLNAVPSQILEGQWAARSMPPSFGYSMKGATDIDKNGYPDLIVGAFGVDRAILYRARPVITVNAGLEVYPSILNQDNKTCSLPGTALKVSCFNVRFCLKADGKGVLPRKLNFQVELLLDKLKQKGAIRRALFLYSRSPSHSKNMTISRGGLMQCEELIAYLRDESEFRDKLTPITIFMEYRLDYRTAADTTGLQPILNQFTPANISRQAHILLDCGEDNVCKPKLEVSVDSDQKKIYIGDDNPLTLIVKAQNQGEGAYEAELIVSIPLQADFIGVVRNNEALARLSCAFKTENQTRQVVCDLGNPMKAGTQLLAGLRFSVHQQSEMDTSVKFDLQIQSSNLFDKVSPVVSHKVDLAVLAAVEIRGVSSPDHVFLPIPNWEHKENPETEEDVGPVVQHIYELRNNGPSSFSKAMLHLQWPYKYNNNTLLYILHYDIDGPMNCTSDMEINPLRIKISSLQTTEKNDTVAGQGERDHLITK
Sequence of integrin αvβ3 (P06756 891-1048 partner limits assumed): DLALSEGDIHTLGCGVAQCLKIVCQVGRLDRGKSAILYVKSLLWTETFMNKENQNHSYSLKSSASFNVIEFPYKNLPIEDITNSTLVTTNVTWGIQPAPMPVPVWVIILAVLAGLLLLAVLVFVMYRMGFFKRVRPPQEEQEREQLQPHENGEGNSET
Sequence of integrin αvβ3 (P05106 27-788): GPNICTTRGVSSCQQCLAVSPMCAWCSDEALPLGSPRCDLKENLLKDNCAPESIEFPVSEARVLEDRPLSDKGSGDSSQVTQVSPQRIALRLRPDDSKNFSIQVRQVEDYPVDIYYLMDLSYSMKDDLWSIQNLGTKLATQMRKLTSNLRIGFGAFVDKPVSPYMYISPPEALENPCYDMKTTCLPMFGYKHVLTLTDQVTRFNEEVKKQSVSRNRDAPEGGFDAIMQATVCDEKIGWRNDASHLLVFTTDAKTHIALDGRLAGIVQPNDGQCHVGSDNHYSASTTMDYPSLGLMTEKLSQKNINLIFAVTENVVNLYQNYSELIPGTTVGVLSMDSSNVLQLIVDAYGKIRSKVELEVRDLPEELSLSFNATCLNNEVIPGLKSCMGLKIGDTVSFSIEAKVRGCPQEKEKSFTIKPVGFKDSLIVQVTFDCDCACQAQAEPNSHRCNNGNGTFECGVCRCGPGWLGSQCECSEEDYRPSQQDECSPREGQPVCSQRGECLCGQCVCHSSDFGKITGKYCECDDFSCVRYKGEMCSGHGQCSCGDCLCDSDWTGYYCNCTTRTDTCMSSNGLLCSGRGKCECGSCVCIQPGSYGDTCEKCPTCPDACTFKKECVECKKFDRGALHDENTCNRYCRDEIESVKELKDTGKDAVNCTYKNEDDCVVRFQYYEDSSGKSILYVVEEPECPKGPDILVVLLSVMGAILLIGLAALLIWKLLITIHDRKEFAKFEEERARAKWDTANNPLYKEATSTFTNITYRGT

B1: CTGF4: C-terminal CTGF fragment comprising essentially module 4 alone, residues 247-349 (protein)
chain: EENIKKGKKCIRTPKISKPIKFELSGCTSMKTYRAKFCGVCTDGRCCTPHRTTTLPVEFKCPDGEVMKKNMMFIKTCACHYNCPGDNDIFESLYYRKMYGDMA
- binding to αvβ3 [1]: strongest affinity
- PSC migration [2]: induced PSC migration
- adhesion of several additional cell types [3]: promoted the dose-dependent adhesion
- fibrogenic response [4]: most robust response
- 3T3 cell adhesion, maximal binding at [5]: 8 ng/well
- PSC adhesion supported by the coated substance [6]: significantly promoted
- binding to integrin α5β1 [7]: bound; also recorded: bound strongly
